US20210380702A1 (Regeneron, published 2021)

B1: H2aM8310N (antibody, mouse IgG2, V domains shown)
VH: QVQLVQSGAEVKKPGASVQVSCKASGYSFTGYYIHWVRQAPGQGLEWMGWINPNSGTKKYAHKFQGRVTMTRDTSIDTAYMILSSLISDDTAVYYCARDEDWNFGSWFDSWGQGTLVTVSS
VL: DIVMTQTPLSSPVTLGQPASISCRSSQTLVHGDGNTYLSWIQQRPGQPPRLLIYKVSNQFSGVPDRFSGSGAGTDFTLKISRVEAEDVGLYFCMQATHFPITFGQGTRLEIK
notes: also called H2M8310N
B2: H2aM8312N (antibody, mouse IgG2, V domains shown)
VH: QVHLVQSGAEVKKPGASVKVSCKASGYTFTGYYIHWVRQAPGHGLEWMGWLNPNTGTTKYIQNFQGRVTMTRDTSSSTAYMELTRLRSDDTAVYYCARDEDWNYGSWFDTWGQGTLVTVSS
VL: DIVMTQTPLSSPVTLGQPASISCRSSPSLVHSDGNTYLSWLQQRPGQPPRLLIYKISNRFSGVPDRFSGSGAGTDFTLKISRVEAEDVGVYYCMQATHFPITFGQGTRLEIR
notes: also called H2M8312N
B3: H2aM8314N (antibody, mouse IgG2, V domains shown)
VH: EVQLVESGGGVVRPGGSLRLSCAASGFTFDDYGMTWVRQAPGRGLEWVSGIHWHGKRTGYADSVKGRFTISRDNAKKSLYLQMNSLKGEDTALYHCVRGGMSTGDWFDPWGQGTLVIVSS
VL: DIQMTQSPSSLSASLGDRVTITCRASQSINSYLNWYQQKPGKAPKLLIYVASSLQSGVPSRFSGSGSGTEFTLTISNLQPEDFATYYCQQSYSTPPITFGQGTRLEIK
notes: also called H2M8314N
B4: H2aM8317N (antibody, mouse IgG2, V domains shown)
VH: EVQLVESGGGLVQPGGSLRLSCAASGFTVGSNYMNWVRQAPGKGLEWVSVIYSGGSTYYADSVKGRFTISRLTSKNTLYLQMSSLRPEDTAVYYCARGIRGLDVWGQGTTVTVSS
VL: DIQMTQSPSSLSASVGDRVTITCRASQTINIYLNWYQQKPGRAPRLLIYAASSLQSGVPSRFSGSGSGTDFTLTISSLQPEDFATYYCHQSYSTPPITFGQGTRLEIK
notes: also called H2M8317N
B5: H2aM8321N (antibody, mouse IgG2, V domains shown)
VH: EERLVESGGDLVQPGGSLRLSCAASGITVGTNYMNWVRQAPGKGLEWVSVISSGGNTHYADSVKGRFIMSRQTSKNTLYLQMNSLETEDTAVYYCARGIRGLDVWGQGTMVTVSS
VL: DIQMTQSPSSLSASVGDRVTITCRASQSMSSYLNWYQQKPGRAPKLLIFAASSLQSGVPSRFSGSGSGTDFTLTISSLQPEDFATYYCQQSYSTPPITFGQGTRLEIK
notes: also called H2M8321N

What was measured:
Human PD-L1 Dimer [1] = molecular target: T1, Human PD-L1 Dimer (human, UniProt Q9NZQ7 19-239); test: SPR (Biacore), mAb captured, 25C
T1 construct: also called hPD-L1 dimer; hPD-L1-hFc
Description: (§1) Binding association and dissociation rate constants (kₐ and kd, respectively), equilibrium dissociation constants and dissociation half-lives (KD and t_{1/2}, respectively) of antigen binding to purified anti-PD-L1 monoclonal antibodies were determined using a real-time surface plasmon resonance biosensor assay on a Biacore 4000 instrument. The Biacore sensor surface was either derivatized with polyclonal rabbit anti-mouse antibody (GE, #BR-1008-38) or with monoclonal mouse anti-human Fc antibody (GE, #BR-1008-39) to capture approximately 200-300 RUs of anti-PD-L1 monoclonal antibodies, expressed with either a mouse Fc or with human Fc, respectively. […] Different concentrations of PD-L1 reagents were injected over the anti-PD-L1 monoclonal antibody captured surface at a flow rate of 30 μL/min. The binding of the PD-L1 reagents to the captured monoclonal antibodies was monitored for 3 to 4 minutes while the dissociation of antibody bound PD-L1 reagents was monitored for 10 minutes in HBST running buffer (0.01 M HEPES pH 7.4, 0.15 M NaCl, 3 mM EDTA, 0.05% v/v Surfactant tween-20). Experiments were performed at either 25° C. or 37° C. Kinetic association (kₐ) and dissociation (kd) rate constants were determined by processing and fitting the data to a 1:1 binding model using Scrubber 2.0c curve fitting software. Binding dissociation equilibrium constants (KD) and dissociative half-lives (t_{1/2}) were then calculated from the kinetic rate constants as: KD (M)=kd/kₐ and t_{1/2} (min)=[In2/(60*kd)].

[2] = molecular target: T2, recombinant cynomolgus monkey PD-L1 with a C-terminal myc-myc-hexahistidine tag (cynomolgus monkey (Macaca fascicularis)); test: SPR (Biacore), mAb captured, 25C
T2 construct: also called MfPD-L1-MMH; MfPD-L1-MMH Monomer
Description: as §1

Human PD-L1 Dimer [3] = molecular target: T1, Human PD-L1 Dimer; test: SPR (Biacore), mAb captured, 37C
Description: as §1

[4] = molecular target: T2, recombinant cynomolgus monkey PD-L1 …; test: SPR (Biacore), mAb captured, 37C
Description: as §1

[5] = molecular target: T3, recombinant human PD-L1 (amino acids 19-239 of NP_054862.1) with a C-terminal myc-myc-hexahistidine tag (human); test: SPR (Biacore), mAb captured, 37C
T3 construct: also called hPD-L1-MMH; hPD-L1-MMH Monomer
Description: as §1

T2 sequence (chain, as listed by the source limits assumed): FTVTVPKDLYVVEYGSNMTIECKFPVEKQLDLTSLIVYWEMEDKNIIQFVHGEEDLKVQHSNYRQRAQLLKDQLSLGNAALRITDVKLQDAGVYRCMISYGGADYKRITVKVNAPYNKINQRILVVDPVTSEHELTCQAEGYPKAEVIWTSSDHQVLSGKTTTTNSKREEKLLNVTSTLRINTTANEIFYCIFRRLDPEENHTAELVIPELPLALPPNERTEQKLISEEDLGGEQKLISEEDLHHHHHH
T1 sequence (Q9NZQ7 19-239): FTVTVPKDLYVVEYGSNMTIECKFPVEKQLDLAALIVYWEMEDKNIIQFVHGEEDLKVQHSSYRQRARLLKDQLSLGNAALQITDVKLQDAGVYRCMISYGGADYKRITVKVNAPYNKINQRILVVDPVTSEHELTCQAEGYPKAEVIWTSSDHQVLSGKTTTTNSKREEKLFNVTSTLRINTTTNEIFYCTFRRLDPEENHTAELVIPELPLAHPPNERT
T3 sequence (chain, as listed by the source limits assumed): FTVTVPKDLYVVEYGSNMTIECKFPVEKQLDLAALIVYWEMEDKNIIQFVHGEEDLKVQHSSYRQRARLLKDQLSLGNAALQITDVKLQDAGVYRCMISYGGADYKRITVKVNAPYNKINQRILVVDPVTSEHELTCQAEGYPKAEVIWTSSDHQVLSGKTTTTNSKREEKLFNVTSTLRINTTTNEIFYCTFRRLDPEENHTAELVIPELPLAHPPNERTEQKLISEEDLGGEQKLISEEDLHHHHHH

Binder | Kd (Human PD-L1 Dimer [1]) | koff (Human PD-L1 Dimer [1]) | kon (Human PD-L1 Dimer [1]) | t1/2 (Human PD-L1 Dimer [1]) | Kd [2] | koff [2] | kon [2] | t1/2 [2] | Kd (Human PD-L1 Dimer [3]) | koff (Human PD-L1 Dimer [3]) | kon (Human PD-L1 Dimer [3]) | t1/2 (Human PD-L1 Dimer [3]) | Kd [4] | koff [4] | kon [4] | t1/2 [4] | Kd [5] | koff [5] | kon [5] | t1/2 [5]
B1 | 0.183 nM | 5.71e-05 s⁻¹ | 313000 M⁻¹ s⁻¹ | 202 min | 2.97 nM | 0.000306 s⁻¹ | 103000 M⁻¹ s⁻¹ | 38 min | 0.258 nM | 0.000124 s⁻¹ | 481000 M⁻¹ s⁻¹ | 93 min | 2.27 nM | 0.00107 s⁻¹ | 471000 M⁻¹ s⁻¹ | 11 min | 9.7 nM | 0.00128 s⁻¹ | 132000 M⁻¹ s⁻¹ | 9 min
B2 | 0.413 nM | 0.000102 s⁻¹ | 247000 M⁻¹ s⁻¹ | 113 min | 8.42 nM | 0.000597 s⁻¹ | 70900 M⁻¹ s⁻¹ | 19 min | 0.732 nM | 0.000261 s⁻¹ | 357000 M⁻¹ s⁻¹ | 44 min | 32.7 nM | 0.00332 s⁻¹ | 101000 M⁻¹ s⁻¹ | 3.5 min | 45.3 nM | 0.00403 s⁻¹ | 88900 M⁻¹ s⁻¹ | 2.9 min
B3 | 0.00426 nM | 1.35e-05 s⁻¹ | 3.16e+06 M⁻¹ s⁻¹ | 859 min | 0.0724 nM | 7e-05 s⁻¹ | 966000 M⁻¹ s⁻¹ | 165 min | 0.00591 nM | 2.3e-05 s⁻¹ | 3.89e+06 M⁻¹ s⁻¹ | 503 min | 0.142 nM | 0.000152 s⁻¹ | 1.07e+06 M⁻¹ s⁻¹ | 76 min | 0.14 nM | 0.00015 s⁻¹ | 1.07e+06 M⁻¹ s⁻¹ | 77 min
B4 | 1.25 nM | 0.00045 s⁻¹ | 359000 M⁻¹ s⁻¹ | 26 min | 226 nM | 0.0238 s⁻¹ | 106000 M⁻¹ s⁻¹ | 0.5 min | 1.36 nM | 0.000657 s⁻¹ | 481000 M⁻¹ s⁻¹ | 18 min | 179 nM | 0.0476 s⁻¹ | 266000 M⁻¹ s⁻¹ | 0.2 min | 647 nM | 0.0585 s⁻¹ | 90300 M⁻¹ s⁻¹ | 0.2 min
B5 | 0.353 nM | 0.000287 s⁻¹ | 813000 M⁻¹ s⁻¹ | 40 min | 29.9 nM | 0.00402 s⁻¹ | 134000 M⁻¹ s⁻¹ | 2.9 min | 0.285 nM | 0.000269 s⁻¹ | 946000 M⁻¹ s⁻¹ | 43 min | 51.1 nM | 0.00816 s⁻¹ | 159000 M⁻¹ s⁻¹ | 1.4 min | 91.6 nM | 0.00929 s⁻¹ | 101000 M⁻¹ s⁻¹ | 1.2 min
